Results: PMC6358098

Target: recombinant protruding (P) domain of Macrobrachium rosenbergii nodavirus capsid protein (MrNV-CP) (Macrobrachium rosenbergii nodavirus)
Assay: SEC; HiPrep 16/60 Sephacryl S-200 HR, Tris-HCl buffer (20 mM Tris-HCl, 100 mM NaCl, pH 7.6); elution profile overlaid with those of standard protein markers

Substance “recombinant protruding (P) domain of Macrobrachium rosenbergii nodavirus capsid protein (MrNV-CP) (domain or fragment)” has a stoichiometry N of 2.
